These results are taken from publication PMC4888959 (Molecular microbiology, 2015).

Sequences and labels used below:
B1: CsrD^ΔEAL (MBP-tagged CsrD residues 156–385) (domain or fragment, E. coli, UniProt P13518 156-385, looked up)
chain: RWLQRQLAGQELLETRATRILNGERGSNVLGTIYEWPPRTSSALDTLLREIQNAREQHSRLDTLIRSYAAQDVKTGLNNRLFFDNQLATLLEDQEKVGTHGIVMMIRLPDFNMLSDTWGHSQVEEQFFTLTNLLSTFMMRYPGALLARYHRSDFAALLPHRTLKEAESIAGQLIKAVDTLPNNKMLDRDDMIHIGICAWRSGQDTEQVMEHAESATRNAGLQGGNSWAIY
B2: EAL (MBP-tagged EAL domain of CsrD, residues 393–646) (domain or fragment, E. coli, UniProt P13518 393-646, looked up)
chain: GRGNVRWRTLIEQMLSRGGPRLYQKPAVTREGQVHHRELMCRIFDGNEEVSSAEYMPMVLQFGLSEEYDRLQISRLIPLLRYWPEENLAIQVTVESLIRPRFQRWLRDTLMQCEKSQRKRIIIELAEADVGQHISRLQPVIRLVNALGVRVAVNQAGLTLVSTSWIKELNVELLKLHPGLVRNIEKRTENQLLVQSLVEACSGTSTQVYATGVRSRSEWQTLIQRGVTGGQGDFFASSQPLDTNVKKYSQRYSV
B3: CsrD^ΔGGDEF (MBP-tagged CsrD residues 156–223 and 393–646) (domain or fragment, E. coli, UniProt P13518 156-223, looked up)
chain: RWLQRQLAGQELLETRATRILNGERGSNVLGTIYEWPPRTSSALDTLLREIQNAREQHSRLDTLIRSYGRGNVRWRTLIEQMLSRGGPRLYQKPAVTREGQVHHRELMCRIFDGNEEVSSAEYMPMVLQFGLSEEYDRLQISRLIPLLRYWPEENLAIQVTVESLIRPRFQRWLRDTLMQCEKSQRKRIIIELAEADVGQHISRLQPVIRLVNALGVRVAVNQAGLTLVSTSWIKELNVELLKLHPGLVRNIEKRTENQLLVQSLVEACSGTSTQVYATGVRSRSEWQTLIQRGVTGGQGDFFASSQPLDTNVKKYSQRYSV
B4: His-tagged EIIA^Glc (enzyme IIA^Glc of the glucose-specific PTS), unphosphorylated (natural protein, E. coli, UniProt P69783 1-169, looked up)
chain: MGLFDKLKSLVSDDKKDTGTIEIIAPLSGEIVNIEDVPDVVFAEKIVGDGIAIKPTGNKMVAPVDGTIGKIFETNHAFSIESDSGVELFVHFGIDTVELKGEGFKRIAEEGQRVKVGDTVIEFDLPLLEEKAKSTLTPVVISNMDEIKELIKLSGSVTVGETPVIRIKK
B5: CsrD^ΔTM (MBP-tagged CsrD residues 156–646, transmembrane domains replaced with MBP) (domain or fragment, E. coli, UniProt P13518 156-646, looked up)
chain: RWLQRQLAGQELLETRATRILNGERGSNVLGTIYEWPPRTSSALDTLLREIQNAREQHSRLDTLIRSYAAQDVKTGLNNRLFFDNQLATLLEDQEKVGTHGIVMMIRLPDFNMLSDTWGHSQVEEQFFTLTNLLSTFMMRYPGALLARYHRSDFAALLPHRTLKEAESIAGQLIKAVDTLPNNKMLDRDDMIHIGICAWRSGQDTEQVMEHAESATRNAGLQGGNSWAIYDDSLPEKGRGNVRWRTLIEQMLSRGGPRLYQKPAVTREGQVHHRELMCRIFDGNEEVSSAEYMPMVLQFGLSEEYDRLQISRLIPLLRYWPEENLAIQVTVESLIRPRFQRWLRDTLMQCEKSQRKRIIIELAEADVGQHISRLQPVIRLVNALGVRVAVNQAGLTLVSTSWIKELNVELLKLHPGLVRNIEKRTENQLLVQSLVEACSGTSTQVYATGVRSRSEWQTLIQRGVTGGQGDFFASSQPLDTNVKKYSQRYSV

The data set “SEC” deals with the molecule itself. Kind of data set: SEC.
The target in data set [1] is B4. Kind of data set: SEC. (In general: SEC sorts molecules by how far they enter the pores of the column.)
In data set [2] the target is B4. The experiment in a line: pull-down.
Data set [3] has as its target T1, CsrD^ΔHAMP (MBP-tagged CsrD residues 192–646) (E. coli, UniProt P13518 192-646).
T1 sequence (looked up): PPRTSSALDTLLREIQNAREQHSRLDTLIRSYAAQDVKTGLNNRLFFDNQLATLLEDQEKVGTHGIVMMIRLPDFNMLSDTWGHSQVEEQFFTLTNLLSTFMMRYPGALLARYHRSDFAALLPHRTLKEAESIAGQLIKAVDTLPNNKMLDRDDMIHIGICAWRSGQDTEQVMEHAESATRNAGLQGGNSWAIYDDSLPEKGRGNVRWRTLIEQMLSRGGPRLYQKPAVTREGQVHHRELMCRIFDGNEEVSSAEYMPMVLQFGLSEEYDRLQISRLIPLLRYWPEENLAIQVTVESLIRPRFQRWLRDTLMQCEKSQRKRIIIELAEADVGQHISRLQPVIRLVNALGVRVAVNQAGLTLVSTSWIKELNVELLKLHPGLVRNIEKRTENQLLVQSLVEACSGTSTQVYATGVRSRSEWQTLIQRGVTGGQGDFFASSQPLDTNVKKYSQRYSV
Kind of data set: pull-down.

The target in data set [4] is B2. Kind of data set: pull-down.

As usually defined, the stoichiometry N is a count of units in the complex or per binding partner. B1: the “stoichiometry N” value in the data set “SEC” amounted to 4.

For the molecule B2, in data set [1], the “stoichiometry N” value worked out at 1 EAL per EIIA^Glc.

As for B3, in “SEC”, the “stoichiometry N” value was found to be 4. Besides, the binding result in data set [2] is listed as “binds”.

As to B4, the binding result in data set [3] and in data set [4] was “binds” each time.

As to B5, in “SEC”, the “stoichiometry N” value turned out to be 4.
